Measured values taken from patent US20120177632A1, “METHODS OF OPTIMIZING DISEASE TREATMENT” (priority 2011, published 2012).

How the values were obtained:
NADPH oxidase = assay: p47phox foci (active NADPH oxidase) in bone marrow-derived macrophages, confocal microscopy; format: cell-based, mouse; settings: WT BMMs; 1,000 units/ml 24 h pretreatment, then 5 mM ATP 1 h
GTP-Rac1 = GTP-Rac1 level in bone marrow-derived macrophages (western blot); format: cell-based, mouse; settings: WT BMMs; 1,000 units/ml 24 h pretreatment, then 5 mM ATP 5, 10 or 15 min
Experimental: Bone marrow-derived macrophages obtained from wild-type mice were pretreated with 1,000 units/ml rIFNα or IFNβ for 24 hours before treatment with 5 mM ATP for 5, 10, or 15 minutes. Cells were then lysed, and total GTP-Rac1 was compared to GTP-Rac1 by western blot first using an antibody specific for GTP-Rac1, followed by membrane stripping and probing with an antibody recognizing total Rac1. GTP-Rac1 signal densitometry for each sample was normalized to total Rac1 using NIH Image/Image J software.

gp91^phox = assay: gp91phox mRNA in bone marrow-derived macrophages (qRT-PCR); format: cell-based, mouse; settings: WT BMMs; 1,000 units/ml, 24 h
Experimental: Nlrp3, Asc, Casp1 and Txnip mRNA expression were evaluated by qRT-PCR. Bone marrow-derived macrophages from wild-type and Ifnar1^−/− mice were incubated with or without 100 ng/ml Ultrapure LPS for 3 hours, and the mRNA expression for each gene was measured by RT-PCR using standard techniques, showing no significant differences between the samples. Similarly, cell surface expression of ATP receptor P2X7R and CD39 (nucleoside triphosphate diphosphohydrolase 1), an ectonucleotidase that hydrolyzes extracellular ATP, on wild-type and Ifnar1^−/− macrophages were determined to be equivalent by flow cytometry using standard techniques. […] Wild-type bone marrow-derived macrophages were incubated with or without 1,000 units/ml rIFNβ for 24 hours before determining levels of gp91^phox mRNA in the total RNA by qRT-PCR using standard techniques. […] DQ ovalbumin staining locates lysosomes. The proportion of cells with DQ ovalbumin leakage to cytoplasm due to ruptured lysosomes was evaluated by incubating wild-type and Ifnar1^−/− macrophages with DQ ovalbumin (10 μg/ml) alone or a combination of DQ ovalbumin (10 μg/ml) and Alum (250 μg/ml) for 1 hour. Wild-type cells were also measured with and without exposure to rIFNα.

mitochondrial ROS = assay: ATP-induced mitochondrial ROS generation in macrophages (MITOSOX Red, flow cytometry); format: cell-based; settings: 1,000 units/ml added 24 hr prior to 5 mM ATP for 30 min
Experimental: This example assessed whether ROS generated by the mitochondria may play a role in NLRP3 inflammasome activation. We tested whether IFNβ suppresses ROS generated by mitochondria with MITOSOX™ Red (Invitrogen™). A time course of ATP-induced mitochondrial ROS generation in macrophages was generated using macrophages incubated with 5 mM ATP for the time indicated in FIG. 12A. Macrophages were incubated with 5 mM ATP for indicated time at 37° C. in complete RPMI medium. ROS activity increase was calculated as mean fluorescence intensity value increase (percent) of MITOSOX™ RED staining by flow cytometry. An increase of mean fluorescent intensity (MFI) of the MITOSOX™ staining is shown in FIG. 12(A, B) as the reference point of MFI at time=0 (i.e., no ATP treatment). The ROS activity increase was calculated as mean fluorescence intensity value increase (percent) of MITOSOX™ Red staining by flow cytometry (FIG. 12A).
Suppression of mitochondrial ROS generation by type-1 IFNs was examined. Cells were incubated with 5 mM ATP for 30 min rIFNα or rIFNβ (1,000 units/mL) was added 24 hr prior to the ATP treatment. […]

B1: rIFNβ: recombinant mouse IFN-β (protein, UniProt P01575 22-182, looked up)
Interferon beta: INYKQLQLQERTNIRKCQELLEQLNGKINLTYRADFKIPMEMTEKMQKSYTAFAIQEMLQNVFLVFRNNFSSTGWNETIVVRLLDELHQQTVFLKTVLEEKQEERLTWEMSSTALHLKSYYWRVQRYLKLMKYNSYAWMVVRAEIFRNFLIIRRLTRNFQN
B1 was tested, and the “formation of p47phox foci” value (NADPH oxidase) was “inhibited the formation of p47^phox foci”, the “cellular levels of GTP-Rac1 (Rac1 activation)” value (GTP-Rac1) was “inhibit activation of GTP Rac1” and the “gp91phox mRNA expression” value (gp91^phox) was “did not affect gp91^phox mRNA expression”. The “mitochondrial ROS generation” value (mitochondrial ROS) was “suppressed”.
